From PMC9397949

Molecular target: ACE-2 receptor on the surface of Vero E6 cells (African green monkey (endogenous in Vero E6))
Assay: flow cytometry on cells; about 10^6 Vero-E6 cells blocked with FACS buffer and 5% normal mouse serum, incubated with RBD (8 ug/mL in the methods; different concentrations in the results) 2 h at 37 C; detected with rabbit monoclonal anti-S1 and Alexa Fluor 488 anti-rabbit IgG; percent of positive cells

Question: For “Recombinant SARS-CoV-2 Spike RBD (Pro330-Ser530), purified (from UniProt P0DTC2 330-530) (domain or fragment)”, which percent of cells bound is on record?
Answer: 60%

Question: Which percent of cells bound does the source give for “commercially available recombinant RBD expressed in insect cells (Cat No. Z03479, GenScript) (from UniProt P0DTC2) (domain or fragment)” here?
Answer: 78%
